Numbering of substitutions follows the chain as printed. Names and notes keep the numbering of the source.
What was measured:
[1] = molecular target: AnkG_repeats (24 ANK repeats of rat 190 kDa ankyrin-G, residues 38–855) (rat) (UniProt O70511); assay: ITC; VP-ITC at 25°C; 50 mM Tris pH 7.5, 100 mM NaCl, 1 mM EDTA, 1 mM DTT; binding partner (AS, Nav1.2 ABD proteins, neurofascin ABD; 200–300 µM) in the syringe, ANK repeats (20–30 µM) in the cell; one-site binding model
[2] = molecular target: T1, FITC-labeled AnkR_AS peptide; assay: fluorescence polarisation; conditions: chain shown with the change
T1 chain: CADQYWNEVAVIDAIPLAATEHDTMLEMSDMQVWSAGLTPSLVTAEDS

[3] = molecular target: T2, Nav1.2_ABD (ankyrin binding domain of Nav1.2, residues 1035–1129); assay: ITC; conditions: chain shown with the change
T2 chain: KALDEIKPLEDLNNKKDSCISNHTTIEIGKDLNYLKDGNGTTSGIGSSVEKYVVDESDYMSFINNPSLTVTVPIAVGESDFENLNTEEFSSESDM

[4] = molecular target: FITC-labeled AnkR_AS peptide (mouse); assay: fluorescence polarisation; FITC-labeled peptide (~1 µM) titrated with AnkB_repeats WT or mutants; 25°C; 50 mM Tris pH 8.0, 100 mM NaCl, 1 mM DTT, 1 mM EDTA; one-site binding model
[5] = molecular target: T3, AnkR_repeats (24 ANK repeats of ankyrin-R, residues 42–853) (mouse, UniProt Q02357-6 42-853); assay: ITC
T3 chain: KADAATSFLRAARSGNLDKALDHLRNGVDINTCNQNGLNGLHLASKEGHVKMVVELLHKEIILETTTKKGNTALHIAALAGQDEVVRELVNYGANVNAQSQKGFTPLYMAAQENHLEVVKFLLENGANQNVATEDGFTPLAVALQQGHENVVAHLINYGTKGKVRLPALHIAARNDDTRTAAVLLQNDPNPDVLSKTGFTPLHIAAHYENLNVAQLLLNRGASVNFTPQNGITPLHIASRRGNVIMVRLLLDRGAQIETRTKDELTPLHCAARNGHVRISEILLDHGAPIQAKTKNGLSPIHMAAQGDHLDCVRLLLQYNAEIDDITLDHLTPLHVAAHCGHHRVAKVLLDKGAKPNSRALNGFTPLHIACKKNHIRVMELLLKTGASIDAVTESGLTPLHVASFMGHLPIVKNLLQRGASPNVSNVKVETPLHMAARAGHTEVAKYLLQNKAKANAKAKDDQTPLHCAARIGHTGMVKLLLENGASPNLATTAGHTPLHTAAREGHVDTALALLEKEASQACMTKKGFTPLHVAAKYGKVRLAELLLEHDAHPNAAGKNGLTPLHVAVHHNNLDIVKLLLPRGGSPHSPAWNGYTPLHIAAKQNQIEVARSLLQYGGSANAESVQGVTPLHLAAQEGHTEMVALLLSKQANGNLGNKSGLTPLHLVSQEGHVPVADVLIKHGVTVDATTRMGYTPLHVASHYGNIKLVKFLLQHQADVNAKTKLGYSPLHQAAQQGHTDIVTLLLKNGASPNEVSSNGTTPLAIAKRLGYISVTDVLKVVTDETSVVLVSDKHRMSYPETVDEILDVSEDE

Nfasc_ABD (28-residue fragment of the neurofascin cytoplasmic tail, residues 1187–1214) (domain or fragment)
Kd [1]: 210 nM

Nav1.2_ABD (ankyrin binding domain of Nav1.2, residues 1035–1129) (domain or fragment)
Kd [1]: 170 nM

E1112A-Nav1.2 (ABD with E1112A) (domain or fragment)
fold weaker binding than wild-type Nav1.2 [1]: 30 fold

Nav1.2_ABD-C (27-residue motif of loop 2, residues 1103–1129) (domain or fragment)
fold weaker affinity than the entire ABD [1]: 15 fold

E1112Q-Nav1.2 (ABD with E1112Q) (domain or fragment)
fold weaker binding than wild-type Nav1.2 [1]: 30 fold

B1: AnkB_repeats (24 ANK repeats of human 220 kDa ankyrin-B, residues 28–873), Q01484 L366Q; F399Q; L432Q (protein)
chain: KSDSNASFLRAARAGNLDKVVEYLKGGIDINTCNQNGLNALHLAAKEGHVGLVQELLGRGSSVDSATKKGNTALHIASLAGQAEVVKVLVKEGANINAQSQNGFTPLYMAAQENHIDVVKYLLENGANQSTATEDGFTPLAVALQQGHNQAVAILLENDTKGKVRLPALHIAARKDDTKSAALLLQNDHNADVQSKMMVNRTTESGFTPLHIAAHYGNVNVATLLLNRGAAVDFTARNGITPLHVASKRGNTNMVKLLLDRGGQIDAKTRDGLTPLHCAARSGHDQVVELLLERGAPLLARTKNGLSPLHMAAQGDHVECVKHLLQHKAPVDDVTLDYQTALHVAAHCGHYRVTKLLLDKRANPNARALNGQTPLHIACKKNRIKVMELLVKYGASIQAITESGQTPIHVAAFMGHLNIVLLLLQNGASPDVTNIRGETALHMAARAGQVEVVRCLLRNGALVDARAREEQTPLHIASRLGKTEIVQLLLQHMAHPDAATTNGYTPLHISAREGQVDVASVLLEAGAAHSLATKKGFTPLHVAAKYGSLDVAKLLLQRRAAADSAGKNGLTPLHVAAHYDNQKVALLLLEKGASPHATAKNGYTPLHIAAKKNQMQIASTLLNYGAETNIVTKQGVTPLHLASQEGHTDMVTLLLDKGANIHMSTKSGLTSLHLAAQEDKVNVADILTKHGADQDAHTKLGYTPLIVACHYGNVKMVNFLLKQGANVNAKTKNGYTPLHQAAQQGHTHIINVLLQHGAKPNATTANGNTALAIAKRLGYISVVDTLKVVTEEVTTTTTTITEKHKLNVPETMTEVLDVSDEEGDDTMTGDGGEYLRPEDLKELGDD
Kd [2]: 410 nM

B2: AnkB_repeats (24 ANK repeats of human 220 kDa ankyrin-B, residues 28–873), Q01484 I267Q; L300Q (protein)
chain: B1 chain with I240Q, L273Q, Q339L, Q372F, Q405L
Kd [2]: 3100 nM

B3: AnkG_repeats (24 ANK repeats of rat 190 kDa ankyrin-G, residues 38–855), O70511 T94A; N98E (protein)
chain: KSDANASYLRAARAGHLEKALDYIKNGVDVNICNQNGLNALHLASKEGHVEVVSELLQREANVDAAAKKGETALHIASLAGQAEVVKVLVTNGANVNAQSQNGFTPLYMAAQENHLEVVRFLLDNGASQSLATEDGFTPLAVALQQGHDQVVSLLLENDTKGKVRLPALHIAARKDDTKAAALLLQNDTNADIESKMVVNRATESGFTPLHIAAHYGNINVATLLLNRAAAVDFTARNDITPLHVASKRGNANMVKLLLDRGAKIDAKTRDGLTPLHCGARSGHEQVVEMLLDRAAPILSKTKNGLSPLHMATQGDHLNCVQLLLQHNVPVDDVTNDYLTALHVAAHCGHYKVAKVLLDKKANPNAKALNGFTPLHIACKKNRIRVMELLLKHGASIQAVTESGLTPIHVAAFMGHVNIVSQLMHHGASPNTTNVRGETALHMAARSGQAEVVRYLVQDGAQVEAKAKDDQTPLHISARLGKADIVQQLLQQGASPNAATTSGYTPLHLSAREGHEDVAAFLLDHGASLSITTKKGFTPLHVAAKYGKLEVASLLLQKSASPDAAGKSGLTPLHVAAHYDNQKVALLLLDQGASPHAAAKNGYTPLHIAAKKNQMDIATSLLEYGADANAVTRQGIASVHLAAQEGHVDMVSLLLSRNANVNLSNKSGLTPLHLAAQEDRVNVAEVLVNQGAHVDAQTKMGYTPLHVGCHYGNIKIVNFLLQHSAKVNAKTKNGYTPLHQAAQQGHTHIINVLLQNNASPNELTVNGNTALAIARRLGYISVVDTLKVVTEEIMTTTTITEKHKMNVPETMNEVLDMS
Kd [3]: 2600 nM

B4: AnkB_repeats (24 ANK repeats of human 220 kDa ankyrin-B, residues 28–873), Q01484 F131Q; F164Q (protein)
chain: B1 chain with F104Q, F137Q, Q339L, Q372F, Q405L
Kd [2]: 2700 nM

B5: AnkB_repeats (24 ANK repeats of human 220 kDa ankyrin-B, residues 28–873) (domain or fragment)
chain: B1 chain with Q339L, Q372F, Q405L
Kd [4]: 140 nM

B6: AnkB_repeats site 1 mutant 'FF' (Phe131 and Phe164 to Gln) (domain or fragment)
chain: B1 chain with F104Q, F137Q, Q339L, Q372F, Q405L
fold decrease in AnkR AS binding against WT ANK repeats [4]: 20 fold

B7: AnkB_repeats site 2 mutant 'IL' (Ile267 and Leu300 to Gln) (domain or fragment)
chain: B1 chain with I240Q, L273Q, Q339L, Q372F, Q405L
fold decrease in AnkR AS binding against WT ANK repeats [4]: 20 fold

B8: AnkB_repeats site 3 mutant 'LFL' (Leu366, Phe399 and Leu432 to Gln) (domain or fragment)
chain: B1 chain
fold decrease in AnkR AS binding against WT ANK repeats [4]: 3 fold

DAIPLAATEHDTMLEMSDMQVWSA [AnkR 1589-1612]
Kd [5]: 23000 nM

CADQYWNEVTVIDAIPLAATEHDTMLEMSDMQVWSA [AnkR 1577-1612]
Kd [5]: 2000 nM

B9: AnkR 1601-1672 (protein)
chain: MLEMSDMQVWSAGLTPSLVTAEDSSLECSKAEDSDAIPEWKLEGAHSEDTQGPELGSQDLVEDDTVDSDATN
Kd [5]: > 50000 nM

B10: AnkR 1529-1825 (protein)
chain: RQSRNLKPERRHGDREYSLSPSQVNGYSSLQDELLSPASLQYALPSPLCADQYWNEVTVIDAIPLAATEHDTMLEMSDMQVWSAGLTPSLVTAEDSSLECSKAEDSDAIPEWKLEGAHSEDTQGPELGSQDLVEDDTVDSDATNGLADLLGQEEGQRSEKKRQEVSGTEQDTETEVSLVSGQQRVHARITDSPSVRQVLDRSQARTLDWDKQGSTAVHPQEATQSSWQEEVTQGPHSFQRRITTIQGPEPGALQEYEQVLVSTREHVQRGPPETGSPKAGKEPSLWAPESAFSQEVQ
Kd [5]: 1000 nM

B11: AnkR 1529-1600 (protein)
chain: RQSRNLKPERRHGDREYSLSPSQVNGYSSLQDELLSPASLQYALPSPLCADQYWNEVTVIDAIPLAATEHDT
Kd [5]: > 50000 nM

B12: AnkR 1529-1672 (protein)
chain: RQSRNLKPERRHGDREYSLSPSQVNGYSSLQDELLSPASLQYALPSPLCADQYWNEVTVIDAIPLAATEHDTMLEMSDMQVWSAGLTPSLVTAEDSSLECSKAEDSDAIPEWKLEGAHSEDTQGPELGSQDLVEDDTVDSDATN
Kd [5]: 1100 nM

DAIPLAATEHDTMLEMSDMQVWSAGLTPSLVTAEDS [AnkR 1589-1624]
Kd [5]: 2200 nM
